# “Also recorded” adds a separate entry of the source. Read-outs that look alike come from different tables or passages of the source.
# B1: Native Apa: Mannosylated protein secreted by M. tuberculosis, product of the Rv 1860 gene, purified from culture supernatant (protein, UniProt P9WIR7 40-325, looked up)
# Alanine and proline-rich …: DPEPAPPVPTTAASPPSTAAAPPAPATPVAPPPPAAANTPNAQPGDPNAAPPPADPNAPPPPVIAPNAPQPVRIDNPVGGFSFALPAGWVESDAAHFDYGSALLSKTTGDPPFPGQPPPVANDTRIVLGRLDQKLYASAEATDSKAAARLGSDMGEFYMPYPGTRINQETVSLDANGVSGSASYYEVKFSDPSKPNGQIWTGVIGSPAANAPDAGPPQRWFVVWLGTANNPVDKGAAKALAESIRPLVAPPPAPAPAPAEPAPAPAPAGEVAPTPTTPTPQRTLPA
# modifications: native mannosylated
# notes: Mannosylated protein secreted by M. tuberculosis, product of the Rv 1860 gene, purified from culture supernatant
# B2: Deglycosylated Apa: deglycosylated Apa protein prepared as described in example 1 (α-mannosidase digestion) (protein, UniProt P9WIR7 40-325, looked up)
# Alanine and proline-rich …: B1 Alanine and proline-rich …
# modifications: deglycosylated
# B3: glycosylated Apa produced by Mycobacterium smegmatis: Glycosylated Apa produced by M. smegmatis, overall mannose composition slightly different from M. tuberculosis Apa (protein, UniProt P9WIR7 40-325, looked up)
# Alanine and proline-rich …: B1 Alanine and proline-rich …
# modifications: glycosylated, produced in M. smegmatis
# B4: E. Coli recombinant Apa: deglycosylated recombinant Apa produced in E. coli (protein, UniProt P9WIR7 40-325, looked up)
# Alanine and proline-rich …: B1 Alanine and proline-rich …
# modifications: non-glycosylated, produced in E. coli
# Key:
# [1] = test system: guinea pigs immunized with heat-inactivated BCG; assay type: in vivo, guinea pig
# [2] = test system: guinea pigs immunized with live BCG; assay type: in vivo, guinea pig; details: for loss of antigenic activity during digestion with α-mannosidase: 0.2 μg intradermally
# T lymphocytes = assay: in vitro lymphocyte proliferation assay; assay type: cell-based
# Description: The conditions of the assay are those described in Horn et al., mentioned above.
# [3] = test system: specific CD4+ T lymphocytes; details: cited from earlier work
# [4] = test system: guinea pigs immunized with the plasmids pAG831 or pAG832; assay type: in vivo, guinea pig; details: antigen 0.2 μg in 100 μl
# [5] = test system: guinea pigs immunized with the Apa fusion peptide; assay type: in vivo, guinea pig
# [6] = guinea pigs immunized with live BCG
molecule,measurement,setting,value
"Lip: Mannosylated glycopeptide purified from M. tuberculosis culture, derived from the protein encoded by the Rv1796 gene (SEQ ID NO:3) (TIPTTETPPPPQTVTLSPVPPQTVTVIPAPPPEEG; not fully specified; mannosylated; MOD_RES (4)..(4) glycosidic bond to a di- or a tri-saccharide; listed as Mycobacterium tuberculosis)",delayed-type hypersensitivity reaction (in words),[1],relatively inactive
same,delayed-type hypersensitivity of the peptide treated with subtilisin,"[2]; 0.02 μg in 0.1 ml, live BCG",abolishes the antigenic activity; also recorded: negative
same,delayed-type hypersensitivity of the peptide treated with α-mannosidase,"[2]; 0.02 μg in 0.1 ml, live BCG",negative
same,antigenic activity after deglycosylation,"[2]; after α-mannosidase 24 h at 37° C., live BCG",less than 30 000 TU/mg
same,activity relative to the standard purified proteins from M. tuberculosis (PPD),"[2]; at an equivalent amount of proteins, Lip 0.02 μg vs PPD 0.25 μg in 0.1 ml",at least 10 times
same,antigenic activity,[2]; [6],1 000 000 TU/mg
same,delayed-type hypersensitivity reaction (in words),[2]; [6],very active
same,loss of the antigenic activity by action of α-mannosidase,[2]; α-mannosidase 24 h at 37° C.,more than 95%
same,T-lymphocyte proliferation,T lymphocytes; T lymphocytes treated with an antibody directed against CD4 molecules,marginal
same,T-lymphocyte proliferation,T lymphocytes; glycopeptide treated with α-mannosidase,marginal
same,T-lymphocyte proliferation,T lymphocytes; native Lip,dependent on the peptide concentration
B1,loss of antigenicity on demannosylation,"[3]; α-mannosidase, TFMS or expression in E. coli",100 fold
same,delayed-type hypersensitivity / CD4+ T lymphocyte response (in words),[4],equivalent
same,loss of antigenic activity during digestion with α-mannosidase,"[2]; digestion 1 h, tuberculin titre vs PPD standard",66%
same,loss of antigenic activity during digestion with α-mannosidase,[2]; digestion 4 h (3 to 6 mannose residues remain),86%
same,delayed-type hypersensitivity reaction (in words),[2]; [6],show a delayed-type hypersensitivity reaction only in response to the native Apa; also recorded: considerable; also recorded: only the glycosylated native Apa is antigenic
same,delayed hypersensitivity sensitization (in words),[5],identical
B2,delayed-type hypersensitivity / CD4+ T lymphocyte response (in words),[4],of the same strength as the responses observed with the glycosylated native antigen
same,delayed-type hypersensitivity reaction (in words),[2]; [6],very weak or absent
same,delayed hypersensitivity sensitization (in words),[5],identical
B3,decrease of antigenic activity versus Apa produced by M. tuberculosis,[3],approximately 10 fold
B4,delayed-type hypersensitivity / CD4+ T lymphocyte response (in words),[4],of the same strength as the responses observed with the glycosylated native antigen
same,delayed-type hypersensitivity / CD4+ T lymphocyte response (in words),[4]; listed as E. coli rApa,equivalent
same,delayed-type hypersensitivity reaction (in words),"[2]; guinea pigs immunized with live BCG, listed as molecules produced in E. coli",very weak or absent
same,delayed-type hypersensitivity reaction (in words),"[2]; guinea pigs immunized with live BCG, listed as non-glycosylated recombinant Apa produced in E. coli",no reaction or develop a greatly decreased reaction
